This test deals with T1, BRAF-HDAC Complex 80 (BHC80)-PHD finger, Q96BD5.
T1 chain: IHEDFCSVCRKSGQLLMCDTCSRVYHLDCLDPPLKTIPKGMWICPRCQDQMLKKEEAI
As to the kind of experiment: ITC. In general terms: In ITC the heat of successive injections is recorded.

Turning to ARTKQTARKSTG (modifications not checked) [unmodified H3 peptide], the Kd – broadly, the free concentration of one partner at which half of the binding sites on the other are occupied at equilibrium, for simple one-to-one binding – is 19.6 µM.

Source of the values: article PMC2922993.
